pKd: −log10 of the molar value.

The experiment deals with recombinant PGI protein (pGEX-4T-PGI) (Ganoderma lucidum). In words: SPR; Biacore T200, NTA sensor chip; PGI immobilised, TLP2 as analyte at 0-400 µM (legend: 0-400 nM); 50 mM HEPES pH 7.5, 150 mM NaCl, 0.1% Tween 20. In general terms: Surface plasmon resonance follows binding to a sensor surface in real time, without labels.

For the substance “recombinant TLP2 protein (pColdI-TLP2) (natural protein)”, the negative logarithm of the Kd (pKd) was 5.66.

A word on the pKd: it is the Kd on a negative log10 scale, so that one unit is a factor of ten.

For the origin of these results see article PMC10715077.
